Assay: yeast display, Sf9 membrane polyspecificity reagent, FACS + sequencing; frameworks hold sequencing errors
Procedure, shortened: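 Galactose-induced (36–48 hours) yeast carrying a synthetic nanobody display library were exposed to 10% biotinylated, detergent-solubilized Sf9 membrane reagent at 4 °C for 1 hour. FACS followed streptavidin microbead enrichment, using low and high (top ~1%) gates for expression (anti-HA) and reagent binding (streptavidin). Colony PCR, MiSeq 2 × 250 sequencing and CDR-length filtering followed. Labels for polyreactivity reflect the gate of origin.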

Sequence	polyreactivity (PSR sort gate)
QVQLVESGGGLVQAGGSLRLSCAASGITFRFYAMGWYRQAPGKERELVAVISRGGGTTYYADSVKGRFTISRDNAKNTVYLQMNSLKPADTSVYYCAADYYYVQSELGYDYWGQGTQVTVSS	high polyreactivity
QVQLVESGGGLVQAGGSLRLSCAASGITFRHNAMGWYRQAPGKERELVAAISRRTYYSDSVKGRFTISRDNAKNTVYLQMNSLKPEDTAVYYCAKDVDYVSDSPYDYWGQGTQVTVSS	low polyreactivity
QVQLVESGGGLVQAGGSLRLSCAASGITFRLYAMGWYRQAPGKERELVAAITGSGGRTYYADSVKGRFTISRDNAKNTVYLQMNSLNPEDTAVFYCNVYPPYAMDYWGQGTQVTVSS	high polyreactivity
QVQLVESGGGLVQAGGSLRLSCAASGITFRRNAMGWYRQAPGKERELFAGITRGGTTKYADSVKGRFTISRDNAKNTVYLQMNSLKPEDTAVYFCAAKDNSYGGPPQFGYWGQGTQVTVSS	high polyreactivity
QVQLVESGGGLVQAGGSLRLSCAASGITFRRYAMGWYRPAPGKERELVASISRGGSTYYADSVKGRFTISRDNAKNTVYLQMNSLTPEDTAVYYCAADVAGRYDYWGQGTQVTVSS	high polyreactivity
QVQLVESGGGLVQAGGSLRLSCAASGITFRRYAMGWYRQAPGKERELVASITSGGSTNYADSVKGRFTISRDNAKNTVYLQMNSLKPEDTAVYYCAADSRWGMDYWGQGTQVTVSS	high polyreactivity
QVQLVESGGGLVQAGGSLRLSCAASGITFRTNTMGWYRQAPGKEREFVAAISSNGGRTYYADSVKGRFTISRDNAKNTVYLQMNSLKPEDTAVYYCNARTKHRYEYDYWGQGTQVTVSS	high polyreactivity
QVQLVESGGGLVQAGGSLRLSCAASGITFRTYAMGWNRQAPGKERELVAAITRRGGSTYYADSVKGRFTISRDNAKNTVYLQMNSLKPEDTAVYYCAVRHNGIQASVGYDYWGQGTQVTVSS	high polyreactivity
QVQLVESGGGLVQAGGSLRLSCAASGITFRVNTMGWYRKAPGKETEFVATISYSGDSTYYADSVKGRFTISRDNAKNTVYLQMNSLKPEDTAVYYCATELVFYGRDYWGQGTQVTVSS	low polyreactivity
QVQLVESGGGLVQAGGSLRLSCAASGITFRWNAMGWYRQAPGKERELVAAITTRGGGTYYADSVKGRFTISRDNAKNTVYLQMNSLKPEDTAVYYCAAKKSRYPYNYWGQGTQVTVSS	high polyreactivity
QVQLVESGGGLVQAGGSLRLSCAASGITFRWYAMGWYRQAPGKERELVAAIRSGSSTYYADSVKGRFTISRDNAKNTVYLQMNSLKPEDPAVYYCNARPWYSWGVDYDYWGQGTQVTVSS	low polyreactivity
QVQLVESGGGLVQAGGSLRLSCAASGITFRWYAMGWYRQAPGKERELVAAISSSGGSTYYADSVKGRFTISRDNAKNTVYLQMNSLKPEVTAVYYCAAYTSYASDYWGQGTQVTVSS	high polyreactivity
QVQLVESGGGLVQAGGSLRLSCAASGITFRYYAMGWSRQAPGKERELVAAITRGGRTNYADSVKGRFTISRDNAKNTVYLQMNSLKPEDTAVYYCATGRDSNFGNSYYYWGQGTQVTVSS	high polyreactivity
QVQLVESGGGLVQAGGSLRLSCAASGITFRYYAMGWYRPAPGKERELVASITSGGVNTYYADSVKGRFTISRDNAKNTVYLQMNSLKPEDTAVYYCATTYVGETLTGPGDYWGQGTQVTVSS	low polyreactivity
QVQLVESGGGLVQAGGSLRLSCAASGITFRYYAMGWYRQAPGKERELVATITRGGSTYYADSVKGRFTISRDNAKNTVYLQMNSLKPEDTAVYYCAARQWYRYKVRFDYWGQGTQVTVSS	high polyreactivity
QVQLVESGGGLVQAGGSLRLSCAASGITFRYYAMGWYRQGPGKERELVASITSGGVNTYYADSVKGRFTISRDNANNTDYLQMNSLKPEDTAVFYCATRFSYSALGGYDYWGQGTQVTVSS	low polyreactivity
QVQLVESGGGLVQAGGSLRLSCAASGITFSANAMGWYRQAPGKERELVATITWSGGSTYYADSVKGRFTISRDNAKNTVYLQMNSLKPEDTAVYYCNARSYDEYPYYSYNYWGQGTQVTVSS	low polyreactivity
QVQLVESGGGLVQAGGSLRLSCAASGITFSAYAMGWYRQAPGKERELVAAISWSGGNTYYADSVKGRFTISRDNAKNTVYLQMNSLKPEDTAVYYCAAEREAYNTWFDYWGQGTQVTVSS	high polyreactivity
QVQLVESGGGLVQAGGSLRLSCAASGITFSRNPMGWYRQAPGKEWELVAAISWSGGSTYYADSVKGRYTISRDNAKNTVYLQMNSLKPEDTAVYYCNVGRRERLEGGYWGQGTQVTVSS	high polyreactivity
QVQLVESGGGLVQAGGSLRLSCAASGITFSRYAMGWYRQAPGKERELVAAISKRGGRTYYADSVKGRFTISRDNAKKTDYLQMNSLKPEDTAVYYCATDYYVSTDYNYWGQGTQVTVSS	high polyreactivity
QVQLVESGGGLVQAGGSLRLSCAASGITFSVNAMGWYRQAPGKERELVASISSGGSTNYADSVKGRFTISRDNAKNTVYLQMNSLKPEDTAVYYCAVAYYPHGREGAHFQYGYDYWGQGTQVTVSS	low polyreactivity
QVQLVESGGGLVQAGGSLRLSCAASGITFSVYAMGWYRQAPGTERELVAAISGSAGSTYYADSVKGRFTISRDNAKNTVYLQLNSLKPEDTAVYYCAARLAPKYSPSSYNYWGEGTQVTVSS	high polyreactivity
QVQLVESGGGLVQAGGSLRLSCAASGITFSVYTMGWYRQAPGKERELVAAIDSDGITNYADSVKGRFTISRDNAKNTVYLQMNSLKPEDTAVYYCAKQSGRADGVSGFDYWGQGTQVTVSS	low polyreactivity
QVQLVESGGGLVQAGGSLRLSCAASGITFSWYVMGWSRQAPGKERDLVATITNRGGSTYYADSVKGRFTISRDNAKNTVYLQMNSLKPEDTAVYYCAARKKGSRVGYDYWGQGTQVTVSS	high polyreactivity
QVQLVESGGGLVQAGGSLRLSCAASGITFSYYAMGWYRQAPGKERELVAASTSGGSTKYADSVKGRFTISRDNAKNTVYFQMNSLKPEDTAVYYCAVRIRRSHDYDYWGQGPQVTVSS	low polyreactivity
QVQLVESGGGLVQAGGSLRLSCAASGITFTAYAMGWYRQAPGKERELVATINSTGITNYADSVKGRFTISRDNAKNTVYLQMNSLKPEDTAVYYCAADLLDISSYDGMDYWGHGTQVTVSS	low polyreactivity
QVQLVESGGGLVQAGGSLRLSCAASGITFTGNSMGWYRQAPGKERELVAAISNRGGSTYYADSVKGRFTISRDNAKNTVYLQMNSLKREDTAVYYCRTSTPRRVSGNYWGQGTQVTVSS	high polyreactivity
QVQLVESGGGLVQAGGSLRLSCAASGITFTGYAMGWYRQAPGKERELVAVISETGGSTYADSVKGRFTISRDNAKNTVYLQMNSLKPEDTAVYYCAARLWWPYSTAWAKMDYWGQGTQVTVSS	low polyreactivity
QVQLVESGGGLVQAGGSLRLSCAASGITFTGYGMGWYRQAPGKERELVAAIRLRTGSTYYADSVKGRFTISRDNAKNTVYLQMYSLKPEDTAVYYCAAAFPRYRSRAIRVDYWGQGTQVTVSS	high polyreactivity
QVQLVESGGGLVQAGGSLRLSCAASGITFTKYAMGWYRQAPGNERELVAAITTTGGSTYYADSVKGRFTISRDKAKNTVYLQMTSLKPEETAVYYCATELGWGGFYKYGHASQFDYWGQGTQVTVSS	low polyreactivity

From the nanobody polyreactivity screen of Harvey et al. (2022)
